Legend:
Test in all cases: pull-down binding Z-score (relative to library population); higher = stronger binding
[1] = tested on: TO-N3 (biotin conjugate); conditions: RNA library: Library-2
Procedure, shortened: (§1)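 An RNA library (1 μg) carrying a Cy5 or Cy3 end label was heat-folded in phosphate/NaCl/KCl buffer, then incubated for 60 min at 25 °C with streptavidin beads loaded with 100 pmol of biotin-conjugated small molecule. The beads were washed three times, and bound RNA was released in hot SDS and hybridised to a DNA barcode microarray for 20 h at 55.5 °C. Each binding score was derived by subtracting the signal from beads without compound, averaging the barcoded replicate probes after removing the highest and lowest, and expressing the result as a Z-score relative to the library mean and standard deviation.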

[2] = tested on: TO-N3-2 (biotin conjugate); conditions: RNA library: Library-2
Procedure, shortened: as §1

[3] = tested on: G-clamp-N3 (biotin conjugate); conditions: RNA library: Library-1 (pre-miRNA loops + repeats)
Procedure, shortened: as §1

[4] = tested on: TO-3-N3-2 (biotin conjugate); conditions: RNA library: Library-2
Procedure, shortened: as §1

[5] = tested on: TO-3-N3 (biotin conjugate); conditions: RNA library: Library-2
Procedure, shortened: as §1

Sequence | pull-down binding Z-score [1] | pull-down binding Z-score [2] | pull-down binding Z-score [3] | pull-down binding Z-score [4] | pull-down binding Z-score [5]
GUUUUACUAUGAUGAGGUGUGCCAUCCACCCCAUCAUAGUAAAC [hsa-mir-606] | -0.422 | -0.698 | -0.172 | -0.139 | -0.262
GCUUAUGUCAUGACCUUGGGCUACUCAGGCUGUCUGCACAAUGAGC [hsa-mir-575] | -0.0339 | 1.66 | -0.804 | -0.342 | -0.544
CUGGGUCCUCUGUGCAGGGUCUUACCCAG [hsa-mir-7850] | -0.253 | 0.337 | -0.833 | -0.415 | -0.3
CUUGGCUUCAAUUUACUCCCAGG [hsa-mir-4446] | 0.101 | 0.323 | -1.06 | -0.0843 | 0.257
UUUCUUAAAUUUUAUAUAUUGGAA [hsa-mir-1284] | -0.124 | -1.11 | -0.71 | -0.0723 | 0.193
UAGUCUAAUAGGGACUA [hsa-mir-5681b] | -0.292 | -1.21 | 2.76 | -0.0587 | 0.02
AAAGCCAGGGACCCUGAGAGGCUUU [hsa-mir-6885] | 0.556 | 1.24 | 3.29 | 0.0899 | 0.0246
UGUAUAUAGCAUAUGUGUAUACAUACACACACACACACACACACACACA [hsa-mir-8485] | 0.167 | -0.143 | -1.14 | -0.16 | 0.396
UUUGCCAUUAAAAGUAAUGCGGCCAA [hsa-mir-548o-2] | -0.0582 | -0.13 | -1.43 | 0.0369 | -0.219
AGGUAGUGUUUAGUUAUCUACU [hsa-mir-20a] | -0.285 | -0.218 | 1.28 | 0.257 | -0.264
CUGGGGGAAGGCUCCAGACCCCAGCCU [hsa-mir-4267] | 1.19 | 1.37 | -0.401 | 0.331 | 0.793
CCUGACAGACAGCCUGAUAGACAGG [hsa-mir-4661] | 1.96 | 0.908 | -0.998 | 0.168 | 2
GGUUCAAGUUUGGCUCCAUCUUUAUGAAA [hsa-mir-4506] | 0.0775 | 0.415 | -0.636 | 0.109 | -0.0094
GUAUGAGUGUAUUGGUCUUCAUAA [hsa-mir-9-2] | 0.0907 | 0.481 | -0.373 | 0.203 | -0.226
AGUUCCUGAUUAAGAAAUGGAAUU [hsa-mir-4699] | -0.814 | -1 | -0.224 | -0.107 | -0.435
GGCAUCUAGGCUGUGCACAGUGACGCC [hsa-mir-4749] | -0.376 | 0.336 | 0.317 | -0.421 | -0.604
CUCAUUGUUGAAUGGAAUGAGAU [hsa-mir-3145] | -0.571 | 0.348 | 2.58 | -0.319 | -0.527
GGUUGUUUAAUUAGGAACCAACU [hsa-mir-190b] | -0.293 | -0.593 | -0.019 | 0.0266 | -0.247

Sequence | pull-down binding Z-score [1] | pull-down binding Z-score [2] | pull-down binding Z-score [3] | pull-down binding Z-score [4] | pull-down binding Z-score [5]
AUGGGAGCCCAGAGACGUCCUAU [hsa-mir-8074] | 0.0134 | 0.669 | 0.253 | -0.433 | -0.304
GGCGGGCGGCGGUGCCCGUC [hsa-mir-4449] | 1.53 | 0.91 | 1.71 | 0.0801 | 0.739
CUUGAUUUAAUGUCAUACAAUUAAG [hsa-mir-124-2] | -0.928 | -0.734 | -0.895 | -0.157 | -0.687
UGCUAUUACUUGUAUUUAUUUGUAAUGCA [hsa-mir-548ab] | -1.33 | -1.59 | -0.547 | -0.88 | -0.524
UUCAUGUUCACUGAAAGGUAGAUUUUAAAAACAUGAA [hsa-mir-4790] | -0.371 | -0.575 | -0.0488 | 0.268 | -0.15
CAGGUGUUCUUAAAAUCACCUG [hsa-mir-875] | -0.806 | -1.05 | -0.405 | -0.143 | -0.63
AUGGUUAAUGUUCCACAGCCA [hsa-mir-5190] | 0.0767 | 0.372 | -0.723 | 0.157 | -0.134
UCCAGAGGCAUCCCUAACCCAGAAUCUUUUGACUGUCCUCUGGA [hsa-mir-4306] | -0.253 | -0.281 | -0.668 | -0.358 | -0.198
GAGUGAGGCCCAGUGGUCACCGCCGCCCUC [hsa-mir-4754] | 1.11 | 1.73 | -0.652 | 0.3 | 0.828
AGAGUCCUGUUGUUGUAAGAUAGUGUCU [hsa-mir-550a-3] | -0.515 | -0.0681 | 0.441 | -0.265 | -0.56
CAAUCAUGUAUAACUAAAUUUGAUUG [hsa-mir-514a-2_514a-3] | -1.55 | -1.74 | 0.276 | -0.513 | -1.04
CCAUUAUUUUUAAUAAUUAUAAUAAUGG [hsa-mir-548s] | -0.233 | -1.2 | 0.705 | -0.237 | 0.0929
UGAGUUUA [hsa-mir-451a] | -0.22 | -0.372 | -1.09 | -0.207 | -0.287
UAUGUGAUUCUACUGCUCACUCAUAUA [hsa-mir-135a-1] | 0.212 | -0.519 | -0.239 | -0.191 | 0.402
UCGGCACUAUUGUGACUGU [hsa-mir-7855] | 0.611 | 0.0889 | -0.0938 | -0.16 | 0.693
UGGUUGAAUAUGUGAAUGGCAUCG [hsa-mir-449a] | 0.153 | 0.601 | 0.694 | 0.0695 | -0.0496
GUUGGGAUUGAGUUUUGAACUCGGC [hsa-mir-196a-2] | -0.0442 | -0.0161 | 0.29 | -0.0929 | 0.00707
UUGUUACAUUUUAGGAUUGCUUGCCCCUUGCUCCAAUGGUGCAGGCAGAAGAAAUGCAAACAA [hsa-mir-3973] | 0.135 | 1.25 | -0.551 | -0.0806 | -0.0993

From the supplement of paper PMC11865577
